From PMC11584650, “An inhibitory segment within G-patch activators tunes Prp43-ATPase activity during ribosome assembly” (Nature Communications, 2024) come the findings set out here.

Substrate in the series: Nc1ncnc2c1ncn2[C@@H]1O[C@H](COP(=O)(O)OP(=O)(O)OP(=O)(O)O)[C@@H](O)[C@H]1O
Nature of the series: pyruvate kinase/lactate dehydrogenase coupled NADH assay, Michaelis-Menten fit. In kind it is biochemical, Saccharomyces cerevisiae. The note with it: no RNA, 20 mM MgCl2, 50 mM Hepes pH 7.5, 200 mM KCl, room temperature, ATP up to 2.5 mM. An excerpt: pyruvate kinase/lactate dehydrogenase coupled NADH assay, Michaelis-Menten fit on Prp43 | We obtained kinetic parameters for the ATPase activities of Prp43, Prp43:Tma23^M and Ppr43:Pxr1^M complexes

B1: Prp43 (Saccharomyces cerevisiae S288C) (protein)
chain: MGSKRRFSSEHPDPVETSIPEQAAEIAEELSKQHPLPSEEPLVHHDAGEFKGLQRHHTSAEEAQKLEDGKINPFTGREFTPKYVDILKIRRELPVHAQRDEFLKLYQNNQIMVFVGETGSGKTTQIPQFVLFDEMPHLENTQVACTQPRRVAAMSVAQRVAEEMDVKLGEEVGYSIRFENKTSNKTILKYMTDGMLLREAMEDHDLSRYSCIILDEAHERTLATDILMGLLKQVVKRRPDLKIIIMSATLDAEKFQRYFNDAPLLAVPGRTYPVELYYTPEFQRDYLDSAIRTVLQIHATEEAGDILLFLTGEDEIEDAVRKISLEGDQLVREEGCGPLSVYPLYGSLPPHQQQRIFEPAPESHNGRPGRKVVISTNIAETSLTIDGIVYVVDPGFSKQKVYNPRIRVESLLVSPISKASAQQRAGRAGRTRPGKCFRLYTEEAFQKELIEQSYPEILRSNLSSTVLELKKLGIDDLVHFDFMDPPAPETMMRALEELNYLACLDDEGNLTPLGRLASQFPLDPMLAVMLIGSFEFQCSQEILTIVAMLSVPNVFIRPTKDKKRADDAKNIFAHPDGDHITLLNVYHAFKSDEAYEYGIHKWCRDHYLNYRSLSAADNIRSQLERLMNRYNLELNTTDYESPKYFDNIRKALASGFFMQVAKKRSGAKGYITVKDNQDVLIHPSTVLGHDAEWVIYNEFVLTSKNYIRTVTSVRPEWLIEIAPAYYDLSNFQKGDVKLSLERIKEKVDRLNELKQGKNKKKSKHSKK
notes: full-length His6-tagged Prp43, expressed in E. coli BL21(DE3)*, Ni-NTA and size exclusion
Usually Km stands for the concentration of substrate that gives half-maximal velocity. As usually defined, the kcat is the maximal rate divided by the concentration of active sites. On to B1, for which the Michaelis constant (Km) amounted to 19.04 ± 7.11 µM and the kcat stood at 1.91 ± 0.03 min⁻¹.
